In data set [1] the target is ParD antitoxin (ParD1) of Caulobacter crescentus (Caulobacter crescentus). Kind of data set: SEC. For orientation: SEC sorts molecules by how far they enter the pores of the column.
The data set “crystal structure” concerns the molecule itself. Kind of data set: crystal structure.

The source of these data is publication PMC2846751 (Biochemistry, 2010).

A word on the stoichiometry N: it is the number of molecules, sites or subunits per partner or assembly.

“ParD antitoxin (ParD1) of Caulobacter crescentus (natural protein)” registered a stoichiometry N in data set [1] of 2.

B1: His6-ParE toxin (ParE1) of Caulobacter crescentus (natural protein, UniProt Q9A9T8 1-96, looked up)
chain: MKPYRLSRRAKADLDDIWTYSEQRWGVEQAADYARELQATIEMIAEHPGMGQPDENLRAGYRRCASGSHVVFYRVGVRVEIIRVLHQSMNARAHLG
modifications: selenomethionine-labeled in the crystal and SAXS samples
For the molecule B1, the binding result in “crystal structure” was “binds”.
